Data on two molecules can be found in PMC12447488, “Targeting Both Monomer and Oligomer with Fibrinogen Efficiently Suppresses Amyloid Fibril Formation and Cell Toxicity of Amyloid β 1‑42” (ACS Chemical Neuroscience, 2025).

One may read the stoichiometry N as the number of molecules, sites or subunits per partner or assembly.

What all share (settings): both partners purified
The target in experiment [1] is T1, Amyloid β 1-42 monomer (UniProt P05067 672-713).
T1 construct: printed molecular weight 4512 g/mol; numbers count on: the Aβ peptide; read out with antibody 4G8 in the dot blot; also called Aβ42; Aβ42 monomer; source: bought: Peptide Institute, Inc. (Japan), used without further purification
As to the kind of experiment: far-Western, overlay or dot blot; Aβ42 20 μM incubated with bFg or hFg (0.03, 0.3, 3 μM) for 1 h at 37 °C in 50 mM phosphate/200 mM NaCl pH 7.4, then dotted; loss of the spot intensity of antibody 4G8 (monomer) or A11 (oligomer) taken as binding by steric hindrance; apparent Kd from fit or simulation with eq S6.

Experiment [2] concerns the target T2, Amyloid β 1-42 oligomer (UniProt P05067 672-713).
T2 construct: numbers count on: the Aβ peptide; granular particles of 5.0 ± 0.9 nm height in AFM; read out with antibody A11 in the dot blot; also called Aβ42 oligomer; Aβ oligomers; source: formed from bought Aβ42 (Peptide Institute, Inc.) at 20 μM during 1 h at 37 °C in 50 mM phosphate/200 mM NaCl (pH 7.4); copies: 12
Described as above.

Experiment [3] concerns the target T1, Amyloid β 1-42 monomer. Kind of experiment: far-Western, overlay or dot blot + AUC; number of binding sites on bFg worked out from the concentrations of Aβ42 species (18 μM monomer, about 0.17 μM oligomer) and of bFg at which the interaction was seen.
Experiment [4] has as its target T2, Amyloid β 1-42 oligomer. The experiment is described as above.

B1: human fibrinogen (complex)
chain 1: ADSGEGDFLAEGGGVRGPRVVERHQSACKDSDWPFCSDEDWNYKCPSGCRMKGLIDEVNQDFTNRINKLKNSLFEYQKNNKDSHSLTTNIMEILRGDFSSANNRDNTYNRVSEDLRSRIEVLKRKVIEKVQHIQLLQKNVRAQLVDMKRLEVDIDIKIRSCRGSCSRALAREVDLKDYEDQQKQLEQVIAKDLLPSRDRQHLPLIKMKPVPDLVPGNFKSQLQKVPPEWKALTDMPQMRMELERPGGNEITRGGSTSYGTGSETESPRNPSSAGSWNSGSSGPGSTGNRNPGSSGTGGTATWKPGSSGPGSTGSWNSGSSGTGSTGNQNPGSPRPGSTGTWNPGSSERGSAGHWTSESSVSGSTGQWHSESGSFRPDSPGSGNARPNNPDWGTFEEVSGNVSPGTRREYHTEKLVTSKGDKELRTGKEKVTSGSTTTTRRSCSKTVTKTVIGPDGHKEVTKEVVTSEDGSDCPEAMDLGTLSGIGTLDGFRHRHPDEAAFFDTASTGKTFPGFFSPMLGEFVSETESRGSESGIFTNTKESSSHHPGIAEFPSRGKSSSYSKQFTSSTSYNRGDSTFESKSYKMADEAGSEADHEGTHSTKRGHAKSRPV
chain 2: QGVNDNEEGFFSARGHRPLDKKREEAPSLRPAPPPISGGGYRARPAKAAATQKKVERKAPDAGGCLHADPDLGVLCPTGCQLQEALLQQERPIRNSVDELNNNVEAVSQTSSSSFQYMYLLKDLWQKRQKQVKDNENVVNEYSSELEKHQLYIDETVNSNIPTNLRVLRSILENLRSKIQKLESDVSAQMEYCRTPCTVSCNIPVVSGKECEEIIRKGGETSEMYLIQPDSSVKPYRVYCDMNTENGGWTVIQNRQDGSVDFGRKWDPYKQGFGNVATNTDGKNYCGLPGEYWLGNDKISQLTRMGPTELLIEMEDWKGDKVKAHYGGFTVQNEANKYQISVNKYRGTAGNALMDGASQLMGENRTMTIHNGMFFSTYDRDNDGWLTSDPRKQCSKEDGGGWWYNRCHAANPNGRYYWGGQYTWDMAKHGTDDGVVWMNWKGSWYSMRKMSMKIRPFFPQQ
chain 3: YVATRDNCCILDERFGSYCPTTCGIADFLSTYQTKVDKDLQSLEDILHQVENKTSEVKQLIKAIQLTYNPDESSKPNMIDAATLKSRKMLEEIMKYEASILTHDSSIRYLQEIYNSNNQKIVNLKEKVAQLEAQCQEPCKDTVQIHDITGKDCQDIANKGAKQSGLYFIKPLKANQQFLVYCEIDGSGNGWTVFQKRLDGSVDFKKNWIQYKEGFGHLSPTGTTEFWLGNEKIHLISTQSAIPYALRVELEDWNGRTSTADYAMFKVGPEADKYRLTYAYFAGGDAGDAFDGFDFGDDPSDKFFTSHNGMQFSTWDNDNDKFEGNCAEQDGSGWWMNKCHAGHLNGVYYQGGTYSKASTPNGYDNGIIWATWKTRWYSMKKTTMKIIPFNRLTIGEGQQHHLGGAKQAGDV
modifications: Natural plasma hexamer (AαBβγ)2, about 340 kDa, disulfide-linked and N-glycosylated, fibrinopeptides A and B retained. Aα is the 610-residue plasma form (the paper gives αC as 221-610); mature 1-610 =
With B1, the Kd with Amyloid β 1-42 monomer [1] is at least 100000 nM; with Amyloid β 1-42 oligomer [2], 1400 ± 200 nM.

B2: bovine fibrinogen (complex)
chain 1: EDGSDPPSGDFLTEGGGVRGPRLVERQQSACKETGWPFCSDEDWNTKCPSGCRMKGLIDEVDQDFTSRINKLRDSLFNYQKNSKDSNTLTKNIVELMRGDFAKANNNDNTFKQISEDLRSRIEILRRKVIEQVQRIKVLQKNVRDQLVDMKRLEVDIDIKIRSCKGSCSRALEHKVDLEDYKNQQKQLEQVIAINLLPSRDIQYLPLIKMSTITGPVPREFKSQLQEAPLEWKALLEMQQTKMVLETFGGDGHARGDSVSQGTGLAPGSPRKPGTSSIGNVNPGSYGPGSSGTWNPGRPEPGSAGTWNPGRPEPGSAGTWNPGRPEPGSAGTWNPGRPEPGSAGTWNPGRPEPGSAGTWNTGSSGSSSFRPDSSGHGNIRPSSPDWGTFREEGSVSSGTKQEFHTGKLVTTKGDKELLIDNEKVTSGHTTTTRRSCSKVITKTVTNADGRTETTKEVVKSEDGSDCGDADFDWHHTFPSRGNLDDFFHRDKDDFFTRSSHEFDGRTGLAPEFAALGESGSSSSKTSTHSKQFVSSSTTVNRGGSAIESKHFKMEDEAESLEDLGFKGAHGTQKGHTKARPARGIHTSPLGEPSLTP
chain 2: QFPTDYDEGQDDRPKVGLGARGHRPYDKKKEEAPSLRPVPPPISGGGYRARPATATVGQKKVERKPPDADGCLHADPDLGVLCPTGCKLQDTLVRQERPIRKSIEDLRNTVDSVSRTSSSTFQYITLLKNMWKGRQNQVQDNENVVNEYSSHLEKHQLYIDETVKNNIPTKLRVLRSILENLRSKIQKLESDVSTQMEYCRTPCTVTCNIPVVSGKECEKIIRNEGETSEMYLIQPEDSSKPYRVYCDMKTEKGGWTVIQNRQDGSVDFGRKWDPYKQGFGNIATNAEGKKYCGVPGEYWLGNDRISQLTNMGPTKLLIEMEDWKGDKVTALYEGFTVQNEANKYQLSVSKYKGTAGNALIEGASQLVGENRTMTIHNSMFFSTYDRDNDGWKTTDPRKQCSKEDGGGWWYNRCHAANPNGRYYWGGAYTWDMAKHGTDDGVVWMNWQGSWYSMKKMSMKIRPYFPEQ
chain 3: YVATRDNCCILDERFGSYCPTTCGIADFLNNYQTSVDKDLRTLEGILYQVENKTSEARELVKAIQISYNPDQPSKPNNIESATKNSKSMMEEIMKYETLISTHESTIRFLQEVYNSNSQKIVNLRDKVVQLEANCQEPCQDTVKIHDVTGRDCQDVANKGAKESGLYFIRPLKAKQFLVYCEIDGSGNGWTVFQKRLDGSLDFKKNWIQYKEGFGHLSPTGTGNTEFWLGNEKIHLISTQSSIPYVLRIQLEDWNGRTSTADYASFKVTGENDKYRLTYAYFIGGDAGDAFDGYDFGDDSSDKFFTSHNGMQFSTWDSDNDKYDGNCAEQVGIGWWMNKCHAGHLNGVYYQGGTYSKTSTPNGYDNGIIWATWKSRWYSMKKTTMKIIPLNRLAIGEGQQHQLGGAKQVGVEHHVEIEYD
notes: fibrinogen Aα chain, bovine; fibrinogen Bβ chain, bovine; fibrinogen γ chain, bovine; About 340 kDa, six polypeptide chains (two Aα, two Bβ, two γ); also called bFg; source: bought: Wako Pure Chemical Industries (from plasma), purified via size-exclusion chromatography (monomer fractions); copies: 2 + 2 + 2
In the case of B2, the Kd is around 1000 nM with Amyloid β 1-42 monomer [1] and 200 ± 50 nM in the experiment with Amyloid β 1-42 oligomer [2]. Further, the “stoichiometry N” value with Amyloid β 1-42 monomer [3] was at most 6; with Amyloid β 1-42 oligomer [4], at least 2.
